From doi:10.1101/2020.04.21.032086

Target: LgBiT-tagged human CXCR4 receptor (UniProt P61073)
Assay: split reporter

koff: 0.00367 s⁻¹ | kon: 10000 M⁻¹ s⁻¹ | pKD: 6.43
Binder: VSGWRLFKKIS [purified HiBiT-HaloTag fusion protein]
